The target in assay [1] is TbMP18-FL (T. brucei (strain Lister 427)). Nature of the assay: SEC. (Size exclusion chromatography separates by hydrodynamic size, large species first.)
The target is the same in assay [2].
The target in assay [3] is TbMP24-OB (T. brucei (strain Lister 427)). The assay can be described thus: SEC.
The target in assay [4] is TbMP42-FL (T. brucei (strain Lister 427)). The assay can be described thus: SEC.
Assay [5] concerns the target TbMP42-OB (T. brucei (strain Lister 427)). Nature of the assay: SEC.
The target of assay [6] is TbMP81-FL (T. brucei (strain Lister 427)). Nature of the assay: SEC.
For assay [7], the target named is TbMP81-OB (T. brucei (strain Lister 427)). The assay can be described thus: SEC.
Assay [8] concerns the target TbMP18-FL (T. brucei (strain Lister 427)). Nature of the assay: SEC. The source holds these as a separate data set.

Where “and” joins values, the source holds several entries; their conditions need not be identical. Equal values may be shown once. Read-outs that look alike come from different tables or passages of the source.

Turning to TbMP18-FL (natural protein), the stoichiometry N (as a rule, a count of units in the complex or per binding partner) in assay [1] came out at 4.
With TbMP24-FL (natural protein), the stoichiometry N (TbMP24-FL:TbMP18-FL (molar ratio)) was 2 and 1.5 in assay [1]; 1.1 in assay [2].
As for TbMP24-OB (domain or fragment), in assay [1], the stoichiometry N (TbMP24-OB:TbMP18-FL (molar ratio)) amounted to 2. The stoichiometry N in assay [3] worked out at 3.
In assay [4], TbMP42-FL (natural protein) came in with a stoichiometry N of 3.
Molecule TbMP42-OB (domain or fragment) returned a stoichiometry N in assay [5] of 3.
For the molecule TbMP81-FL (natural protein), the stoichiometry N in assay [6] came to 2.
With TbMP81-OB (domain or fragment), in assay [7], the stoichiometry N was 2.

B1: TbMP63-OB (domain or fragment)
chain: SAIGASWAETELIPHAQCVSNITIVGRVLDVSQASENVSHVTVFVEGERSGEEETLTLCCFGEVSQKIRGTLKRNATIFASGTLRLHPVYEASNNKYYVSPVVHVSMPTGTLAVIT
For B1, the stoichiometry N (TbMP63-OB:TbMP18-FL (molar ratio)) in assay [8] was 1 and 1.5; in assay [2] it was 0.67.
